The data set in a line: protease stability score; higher = more stable; yeast display proteolysis, trypsin and chymotrypsin.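 Note: relative to predicted unfolded state with 0 unfolded-like and 1 meaning tenfold more protease.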
“SEDEEAVHKMLEMWIKHINTGDERHLHKLADPNYRVEQGDKELHGRHAYEYVFHQFDHWKEIRIEEVKTYDGRVKIKGREVYHINGQEIESEVRIITTKVDGQWHLKSILFK”: the protease stability score stood at 0.525.

The sequence “SEDEEAVRRILKKLLQSHETGDFRMFDRMLDPHVRLDVNGREHIGRESVHRVVEELRIEDMRLTDMHSQGNYLDIDGRLDGSVNGKKDTYRVRLVILKVDGRWIIEEMRIG” yielded a protease stability score of 1.95.

As to “SEDEEAVRRLIRMLVEWESTGDFESVLRLFDPHARYRIDGVDLHGRHAWERLYKEIRINSVRVKRIEMQGDKVHVDSRLRGEIDGRETDLEVEIIIRKVNGRWVIEEVRIH”, the protease stability score came to 2.2.

“SEDEEDAERLIRELEHAWHTGDEKYLWEMIDPHARFIIGDKEFHGRDLQLRILHRLIKELGVSRFELHIEHFEVIDGRLHTEGRLNVNGRILKTHLILRKIDGRWLIKSDELR” returned a protease stability score of 1.49.

The sequence “SEDEEDARRMVEIWKRSLETGDFKRILELMDPNTKYLFNGREYHGRHFVSRLFTEELERIKGARIEEESLEIQGNKVILHTRLHINGQHFKQITIIMKIDGKWFLESFSVE” came in with a protease stability score of 2.01.

“SEDEEDFERAIKLYETLNATGNEEEYSKMVDPHVKMHFNGVDFHGREKMVEVVHKLGVKHLETKSIRIIGDFLRSRFENDVDGRKIEQEVQMLKINGRWLIKYISFH” registered a protease stability score of 0.706.

With “SEDEEDFERAMKLLMHDIRTGNEESLNRLFDPNVKININGKELWGREKWIEFLERVDHLDVHDMKIRHLDIQGEKVRAEVHIDRRIKIGDKETRVKVDIRMIAVKVNGRWLLREISVE”, the protease stability score turned out to be 2.1.

In turn, “SEDEEDLKRIVELLVRALKTGDEDLIRHLADPHVRLEVGDKEHHGREEYTRWAENFVERIDHVNIHIKRMTTIGNYLQMDVRLEERFDGRRVELRHYLIILKVDGRWVIKEVQIE” yielded a protease stability score of 1.25.

With “SEDEEDLRRIFELLMELWLTGDERHMEHLIDPNAKLHYDGVEYHGREDARRLIHRFDVFEDARVRRVRLIDGQVRMDTHFIGRVDGRRIQVDSIIFMRKINGRWVSKEEVYV”, the protease stability score was 1.34.

As for “SEDEEDMKKASETISEEYHTGDEDAHKKLMDPNARMLYGDKDTHGREHWEHVIKRFGFDHVIIKRIEIHVYDGRIDLHMDVRLIVNGQNLEVRLIIIVRKINGRWRIESVNIHIE”, the protease stability score worked out at 0.061.

“SEDEEDMTHAIEEIEHFWMTGDWKKMHDLADPHVKTIINGREQHGRRHMIEAIKDSRRRLGVNYIHSVSNKHFDLQGNKVHSDIRIDVDVNGKHIDLELEVDIVKVDGKWQLSHLKIV” registered a protease stability score of 0.931.

In the case of “SEDEEDSKEAFRLVEEILITGNEEEIDDMADPHTRVQIGNKIWHGRELFLDWVREHLRRADVVRDVHLTHESAYDGKVELHMKVVIHYGDKTIDTEMVFVSRKIDGKWITHSITMV”, the protease stability score is 1.18.

As for “SEDEEDVEQWVRIWFDLLLTGDEDSLRKLIDPHARVEVNGVIQIGREEVARFLSQMRVHDSTLRDIKIYDGRVEIDNEEDVEFNGQRKRVKVILISNKFDGRWTNEHEKYE”, the protease stability score came to 0.449.

As to “SEDEEEAERFLRMFFELIRTGDERTIERLLDPHVRIDIDGRDIHGRERAQEHVQHWYRHIRIEDDQIKEFHIQGNKVEHHGRRRGSFNGVTYEVTVHETVLKVDGVWYMKEVHVR”, the protease stability score was found to be 0.891.

On to “SEDEEEAHEFLKRLDNAHRTGDEDFVYEQMDPDVRIDINGREWHGRELAREYLSIYGIKVMEVKRVNVYDGRINVDGHVEFNGVRNKTTIIMQKIDGRWRVKSITIK”, for which the protease stability score came out at 1.41.

Regarding “SEDEEEAKRSIELEMRSWRTGDEDAWLRLADPDVKFVIDGREFHGREALEFLQNRFDHIEMREHEVRHVDLQGDKIHMDTRLRMILIYNGVEIEKETRTEIVVKKIDGRWILHQVEYR”, the protease stability score was 0.724.

The sequence “SEDEEEATHLSRVLIELLKTGDEEMLEHLADPNDRNDFNGRVKHGRELVTKMLRKLMTDLGIDHIEHVTLRRLEVQGEWVKFNFEIIGRVNGRELSFRVRFIMEKVDGKWRLSERHTI” gave a protease stability score of 1.71.

Regarding “SEDEEEERRVEKLWSKALHTGDEEELHRLADPNVLLNFDGVEYIGREEFLKHFRRLVHEARIEFIILKDSKLIDGRLHIHGIDLVTQGDKRIELKSEVIVLKINGRWIIHHIHIH”, the protease stability score turned out to be 0.75.

In the case of “SEDEEEFRRWLEEMVRALITGDEDRLKELFDPHAQVHVNGKERHGRDELVKAFRETLEDFGVKHMRVTSSSVQGDYVIIHIEMHVDGKPIQTDIRVIIVNGKVHKFEVQLH”, the protease stability score worked out at 1.89.

With “SEDEEEHKEMLRILIHDNRTGDEDSFRDMFDPNVRFEQGEWSAHGRDWAEHVMRRADHVKLDLQTMDTQGDKVILHGRLILLQGEKRIDEKVIFIIRKIDGKWILESVHFH”, the protease stability score worked out at 1.21.

For “SEDEEEIKKAVEILLKELRTGDEDSFEKNLDPNARVHDENHRSHGREEVTKWFYEFRKKFKNARHTFEHIIVVGDKVINHMRVEIDGVTINSLWFIKKVDGRWVITSIHIN”, the protease stability score was found to be 2.26.

“SEDEEEIKTTFENLDRSIRTGDEDHVRKLADPTMRLDWNGQEFHGREWFSKHLSEFVKRADHFEIRLHDLDMVNGKLHIDGQLILIINGRTQILKLHLVFIKVDGRWILDNVQVN” yielded a protease stability score of 1.04.

The sequence “SEDEEEISEFTRMHLEDIITGDEDTLRRLVDPNVRIFIDGKHIHGMETYVKRLDENFKHLGVDHVEIRIHQIRLINGRARVDGVLIIEIGDKREERRTFLILLKVNGRWVMEEYRIH” returned a protease stability score of 1.07.

Take “SEDEEEKHKFAEIFWHAHLTGDFDTLKRLVDPNVRIRIGDKDLHGREHLLEELRKIKNLTIEERHVDIQGEWMRMEVVHYVNGVHIDTTIHIDVVNGRIRRIVFNIV”: the protease stability score came to 2.47.

“SEDEEELERELRLWLSLVLTGDEDIIRELADPHARSRVNGQKSHGRENLLQLFREHMEIMGAKVVDIEEYHIQGEKIILIMRVHVGDKEYELRIEIHVFNGRLKEVNLHFK” came in with a protease stability score of 1.52.

The sequence “SEDEEELNRVLKELLHAMVTGNEELWSRLVDPNYRVTVGDFRLHGMEEYSRILHEWRVEIREFRITSRTTVDGRIFIDAHFTEEIKQGDKVTFVNTRIRLIMIKVDGRWHVESREIR” came in with a protease stability score of 0.484.

“SEDEEESEFAVRELSKIIKTGDPDRFHHLADPNMRFIYGDKREHGMESWVSHLHRLGIENVEVHIHDWSVFNGQVVIDGRINVNGREVNAEFVMRKIDGRWHITEVRER” registered a protease stability score of 0.611.

Turning to “SEDEEESEKFLRRLLQAYRTGDEDKLNELIDPNARMDVNGVDNHGWEEISRLLKELRVKHLILHDQKNYDGRAEMDTIVDGRFNGRDDRRKSIIIVIKIDGRWIIESLSIG”, the protease stability score stood at 1.1.

“SEDEEESRHAYQKLVRDLETGDEKKTEDNVDPNVRLEQGDKTLHGRERFVHWYSRLGAKHFHIHSFEAQGDKIHIDGTINVNGVTHRVEYISLKVNGRWLMHQVIIR”: the protease stability score stood at 0.662.

On to “SEDEEETRESLELLMRSLKTGDEHQIRRMFDPDALTVIDGREFHGRERATHAMREWKREIRIKEIRIRDWKTQGEKVHLDIEVVTEVNGVEDRREVKLLLIKVNGRWFIHSIHIH”, for which the protease stability score amounted to 1.43.

Consider “SEDEEEVKHMVDEWWKQVLTGDEESLMRLIDPHAKLDFENVTYHGRDELSRYLTKLLREIRFRDIKIHDVRVYDGKVDLHTHMNIIVDGRTHILDTRMIIVKINGRWYIHQVRIK”, for which the protease stability score came out at 2.42.

“SEDEEEVRKFLKRLLRATETGNEQVLKELFDPNVRIVIGDKHLIGWDFMHTILRRVDVWVVRHIEIKRIDFQGDKLDIDGHVHYEEQIDGQRVSHKRDVKLIMLKVNGVWMFEYIIIH” gave a protease stability score of 2.45.

“SEDEEEWHEATHLLVESLKTGDWKDLSRLADPNAKLHVGEKTVIGRELVSKHLKNRMTELGINHIHIEDRESQGDKIFIISHIHVNGREMKSIFIILKIDGRWILHSMEIREH” yielded a protease stability score of 0.327.

“SEDEEFAEKYLKEWVERVRTGDEDHLWKLLDPDPRIRIDGKEIIGREIAVKHMSEIRPTSIRLTSFHSQGDKINVDGETDGEFNGVRQRQRVIYIILKVDGRWLLHSVEFK” came in with a protease stability score of 1.05.

These data come from the NTF2 design screens of Basanta et al. (2020).
